Experimental data as given in the supplement of paper PMC7877785.
± gives the uncertainty stated by the source.

Assay: self-splicing fitness, log relative to wild type (ln ratio); higher = more splicing; Tetrahymena group I intron in knt gene, E. coli kanamycin selection, DiMSum; sequences stand for … in CUCUCU…GGAGGGAAAAGUUAUCAGGCAUGCACCUGGUAGCUAGUCUUUAAACCAAUAGAUUGCAUCGGUUUAAAAGGCAAGACCGUCAAAUUGCGGGAAAGGGGUCAACAGCCGUUCAGUACCAAGUCUCAGGGGAAACUUUGAGAUGGCCUUGCAAAGGGUAUGGUAAUAAGCUGACGGACAUGGUCCUAACCACGCAGCCAAGUCCUAAGUCAACAGAUCUUCUGUUGAUAUGGAUGCAGUUCACAGACUAAAUGUCGGUCGGGGAAGAUGUAUUCUUCUCAUAAGAUAUAGUCGGACCUCUCCUUAAUGGGAGCUAGCGGAUGAAGUGAUGCAACACUGGAGCCGCUGGGAACUAAUUUGUAUGCGAAAGUAUAUUGAUUAGUUUUGGAGUACUCGUGGUCG
Outline: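 A randomised library covering all eight P1ex-region intron nucleotides was built with the intron in the knt kanamycin-resistance gene on pET-22b(+) and held in E. coli BL21(DE3). Cells were grown overnight at 37°C or 30°C on LB agar, with or without 25 μg/mL kanamycin, plus 100 μg/mL carbenicillin, 50 μM IPTG and 0.2% rhamnose, and pooled colonies were amplicon-sequenced on an Illumina HiSeq 2500. DiMSum fitness is the error-weighted combination of wild-type-normalised replicate fold changes, kanamycin versus none.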

| Sequence | self-splicing fitness (ln) (30 °C) | self-splicing fitness (ln) (37 °C) |
| --- | --- | --- |
| AUUGAGCAAUAUUACGGACU | -2.64 ± 0.21 | -0.639 ± 0.14 |
| CCCGAGCAAUAUUACGGUGC | -4.61 ± 0.32 | -2.77 ± 0.16 |
| AGGCAGCAAUAUUACGAAGU | -2.32 ± 0.1 | -0.471 ± 0.098 |
| UACUAGCAAUAUUACGGUGA | -1.54 ± 0.11 | -0.0276 ± 0.12 |
| AAAUAGCAAUAUUACGGGUC | -3.56 ± 0.17 | -3.1 ± 0.24 |
| CGGUAGCAAUAUUACGUAUG | -0.225 ± 0.092 | 0.297 ± 0.12 |
| CACGAGCAAUAUUACGGAUC | – | -2.84 ± 0.3 |
| UCGAAGCAAUAUUACGGCUG | -1.98 ± 0.14 | -0.494 ± 0.14 |
| CGUUAGCAAUAUUACGAUGU | -2.6 ± 0.26 | -1.78 ± 0.36 |
| AAAGAGCAAUAUUACGAGAA | -2.11 ± 0.46 | – |
| GUGAAGCAAUAUUACGCUGC | -3.05 ± 0.21 | -2.19 ± 0.21 |
| GCUUAGCAAUAUUACGUACA | -1.38 ± 0.13 | -0.577 ± 0.14 |
| AGCAAGCAAUAUUACGCCCC | 0.415 ± 0.15 | -0.728 ± 0.18 |
| CAAUAGCAAUAUUACGGCAG | -0.535 ± 0.078 | 0.191 ± 0.11 |
| AUGGAGCAAUAUUACGUUGA | – | -2.38 ± 0.2 |
| GGUAAGCAAUAUUACGGUGU | -1.81 ± 0.1 | -0.484 ± 0.11 |
| GGGCAGCAAUAUUACGCGAU | -2.41 ± 0.39 | -1.8 ± 0.28 |
| GUAGAGCAAUAUUACGUUGU | -2.53 ± 0.3 | -0.699 ± 0.29 |
| UAACAGCAAUAUUACGCGUG | -0.718 ± 0.041 | 0.173 ± 0.055 |
| UAAUAGCAAUAUUACGCUAU | -2.93 ± 0.19 | -1.85 ± 0.21 |
| GCGUAGCAAUAUUACGCUUC | – | -0.836 ± 0.35 |
| CAUCAGCAAUAUUACGUUUC | -2.76 ± 0.17 | -1.82 ± 0.16 |
| GCCUAGCAAUAUUACGUUUC | -2.03 ± 0.073 | -0.802 ± 0.079 |
| CGUCAGCAAUAUUACGAAUG | -0.494 ± 0.077 | -0.0535 ± 0.093 |
| UCGAAGCAAUAUUACGGCUA | -2.29 ± 0.15 | -1.41 ± 0.099 |

| Sequence | self-splicing fitness (ln) (30 °C) | self-splicing fitness (ln) (37 °C) |
| --- | --- | --- |
| CAAAAGCAAUAUUACGAUUC | -2.41 ± 0.11 | -0.98 ± 0.089 |
| CUUCAGCAAUAUUACGCCAC | -2.72 ± 0.5 | – |
| AGUUAGCAAUAUUACGAAAA | -2.79 ± 0.49 | -1.5 ± 0.32 |
| AGGUAGCAAUAUUACGAACU | 0.0152 ± 0.016 | 0.016 ± 0.034 |
| GUAAAGCAAUAUUACGAUUC | 0.475 ± 0.08 | 0.115 ± 0.091 |
| UGGUAGCAAUAUUACGCGUU | -2.76 ± 0.13 | -1.32 ± 0.12 |
| CCUCAGCAAUAUUACGGACA | -3.54 ± 0.19 | -3.15 ± 0.26 |
| AGCCAGCAAUAUUACGUGCG | -0.906 ± 0.077 | -0.256 ± 0.087 |
| GGACAGCAAUAUUACGGUGC | -1.58 ± 0.094 | -0.8 ± 0.11 |
| GCGAAGCAAUAUUACGGUUA | 0.0459 ± 0.22 | -0.871 ± 0.19 |
| CAUGAGCAAUAUUACGCGGG | -1.45 ± 0.14 | -2.46 ± 0.28 |
| CUUAAGCAAUAUUACGAGAU | -2.92 ± 0.22 | -1.59 ± 0.2 |
| CCCUAGCAAUAUUACGGUUC | -3.92 ± 0.16 | -2.04 ± 0.21 |
| UCGCAGCAAUAUUACGCCGU | -3.48 ± 0.26 | -2.99 ± 0.4 |
| CUGGAGCAAUAUUACGUGGA | -1.96 ± 0.23 | -2.63 ± 0.48 |
| ACAUAGCAAUAUUACGGGUA | -2.8 ± 0.19 | -2.35 ± 0.14 |
| ACAGAGCAAUAUUACGAAUC | -2.92 ± 0.36 | – |
| GCACAGCAAUAUUACGGAGC | -2.16 ± 0.15 | -2.1 ± 0.21 |
| CUGCAGCAAUAUUACGUUUU | -3.97 ± 0.19 | -3.27 ± 0.21 |
| ACGAAGCAAUAUUACGUACC | -1.3 ± 0.14 | -1.17 ± 0.19 |
| GGGCAGCAAUAUUACGCCAU | -1.69 ± 0.12 | -1.21 ± 0.13 |
| UAGGAGCAAUAUUACGCUAC | – | 0.223 ± 0.43 |
| UCGGAGCAAUAUUACGUGGU | -3.59 ± 0.39 | -1.72 ± 0.34 |
| ACGUAGCAAUAUUACGAGAU | -2.82 ± 0.14 | -2.23 ± 0.19 |
| GCGGAGCAAUAUUACGGACA | -1.62 ± 0.21 | -2.26 ± 0.31 |
